Reference: patent US20180155451A1 (published 2018)

T1: FcγRIIa H (human, UniProt P12318 34-217)
T1 construct: extracellular domain; also called FcgRIIa H type; 2aH
T1 sequence (looked up): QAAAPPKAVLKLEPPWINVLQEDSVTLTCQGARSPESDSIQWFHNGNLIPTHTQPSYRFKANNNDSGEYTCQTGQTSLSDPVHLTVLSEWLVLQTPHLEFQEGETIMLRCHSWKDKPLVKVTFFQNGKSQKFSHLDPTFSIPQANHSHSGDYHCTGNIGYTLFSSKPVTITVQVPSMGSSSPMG

T2: FcγRIIb (human, UniProt P31994 43-217)
T2 construct: extracellular domain; also called FcgRIIb; 2b
T2 sequence (looked up): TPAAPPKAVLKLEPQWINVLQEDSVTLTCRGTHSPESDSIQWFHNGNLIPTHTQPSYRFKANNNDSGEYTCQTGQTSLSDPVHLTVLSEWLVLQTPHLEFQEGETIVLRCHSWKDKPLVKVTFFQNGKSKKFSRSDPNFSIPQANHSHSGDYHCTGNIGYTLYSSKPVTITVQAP


Assays:
FcγRIIa H [1] = target: T1, FcγRIIa H; assay: ratio of He/Con_2aH to He/Con_2b (relative SPR binding to FcγRIIa H over that of the same antibody to FcγRIIb)
FcγRIIb = target: T2, FcγRIIb; assay: SPR (Biacore), antibody captured on antigen-peptide chip, FcγR as analyte; binding relative to GpH7-A5/GpH7-B3/GpL16-k0 = 100
FcγRIIa H [2] = target: T1, FcγRIIa H; assay: as above

He_2aH/2b (IIaH/IIb) (FcγRIIa H [1]) | He/Con_2b (FcγRIIb) | He/Con_2aH (FcγRIIa H [2]) | Binder
1.25 | 67.8 % of HeCon Ab | 85 % of HeCon Ab | GpH7-A5/GpH7-B3 variant H268_08L/GpL16-k0 (antibody, human IgG1, kappa, Heterodimerized anti-glypican-3 IgG1; substitution in only one H chain (the GpH7-B3 chain); also called He Ab) heavy 1: not shown heavy 2: not shown light: DIVMTQSPLSLPVTPGEPASISCQASESLVHSNRNTYLHWYLQKPGQSPQLLIYKVSNRFSGVPDRFSGSGSGTDFTLKISRVEAEDVGVYYCSQNTHVPPTFGQGTKVEIERTVAAPSVFIFPPSDEQLKSGTASVVCLLNNFYPREAKVQWKVDNALQSGNSQESVTEQDSKDSTYSLSSTLTLSKADYEKHKVYACEVTHQGLSSPVTKSFNRGEC
6.07 | 0.6 % of HeCon Ab | 3.7 % of HeCon Ab | GpH7-A5/GpH7-B3 variant D265_15Y/GpL16-k0 (antibody, human IgG1, kappa, Heterodimerized anti-glypican-3 IgG1; substitution in only one H chain (the GpH7-B3 chain); also called He Ab) heavy 1: not shown heavy 2: not shown light: DIVMTQSPLSLPVTPGEPASISCQASESLVHSNRNTYLHWYLQKPGQSPQLLIYKVSNRFSGVPDRFSGSGSGTDFTLKISRVEAEDVGVYYCSQNTHVPPTFGQGTKVEIERTVAAPSVFIFPPSDEQLKSGTASVVCLLNNFYPREAKVQWKVDNALQSGNSQESVTEQDSKDSTYSLSSTLTLSKADYEKHKVYACEVTHQGLSSPVTKSFNRGEC
2.01 | 6.1 % of HeCon Ab | 12.4 % of HeCon Ab | GpH7-A5/GpH7-B3 variant D265_18N/GpL16-k0 (antibody, human IgG1, kappa, Heterodimerized anti-glypican-3 IgG1; substitution in only one H chain (the GpH7-B3 chain); also called He Ab) heavy 1: not shown heavy 2: not shown light: DIVMTQSPLSLPVTPGEPASISCQASESLVHSNRNTYLHWYLQKPGQSPQLLIYKVSNRFSGVPDRFSGSGSGTDFTLKISRVEAEDVGVYYCSQNTHVPPTFGQGTKVEIERTVAAPSVFIFPPSDEQLKSGTASVVCLLNNFYPREAKVQWKVDNALQSGNSQESVTEQDSKDSTYSLSSTLTLSKADYEKHKVYACEVTHQGLSSPVTKSFNRGEC
1.29 | 65.7 % of HeCon Ab | 84.8 % of HeCon Ab | GpH7-A5/GpH7-B3 variant H268_06M/GpL16-k0 (antibody, human IgG1, kappa, Heterodimerized anti-glypican-3 IgG1; substitution in only one H chain (the GpH7-B3 chain); also called He Ab) heavy 1: not shown heavy 2: not shown light: DIVMTQSPLSLPVTPGEPASISCQASESLVHSNRNTYLHWYLQKPGQSPQLLIYKVSNRFSGVPDRFSGSGSGTDFTLKISRVEAEDVGVYYCSQNTHVPPTFGQGTKVEIERTVAAPSVFIFPPSDEQLKSGTASVVCLLNNFYPREAKVQWKVDNALQSGNSQESVTEQDSKDSTYSLSSTLTLSKADYEKHKVYACEVTHQGLSSPVTKSFNRGEC
1.91 | 0.4 % of HeCon Ab | 0.7 % of HeCon Ab | GpH7-A5/GpH7-B3 variant V266_05P/GpL16-k0 (antibody, human IgG1, kappa, Heterodimerized anti-glypican-3 IgG1; substitution in only one H chain (the GpH7-B3 chain); also called He Ab) heavy 1: not shown heavy 2: not shown light: DIVMTQSPLSLPVTPGEPASISCQASESLVHSNRNTYLHWYLQKPGQSPQLLIYKVSNRFSGVPDRFSGSGSGTDFTLKISRVEAEDVGVYYCSQNTHVPPTFGQGTKVEIERTVAAPSVFIFPPSDEQLKSGTASVVCLLNNFYPREAKVQWKVDNALQSGNSQESVTEQDSKDSTYSLSSTLTLSKADYEKHKVYACEVTHQGLSSPVTKSFNRGEC

More lines, now with the values behind:

Binder | He_2aH/2b (IIaH/IIb) (FcγRIIa H [1]) | He/Con_2b (FcγRIIb) | He/Con_2aH (FcγRIIa H [2])
GpH7-A5/GpH7-B3 variant D265_11K/GpL16-k0 (antibody, human IgG1, kappa, Heterodimerized anti-glypican-3 IgG1; substitution in only one H chain (the GpH7-B3 chain); also called He Ab) heavy 1: not shown heavy 2: not shown light: DIVMTQSPLSLPVTPGEPASISCQASESLVHSNRNTYLHWYLQKPGQSPQLLIYKVSNRFSGVPDRFSGSGSGTDFTLKISRVEAEDVGVYYCSQNTHVPPTFGQGTKVEIERTVAAPSVFIFPPSDEQLKSGTASVVCLLNNFYPREAKVQWKVDNALQSGNSQESVTEQDSKDSTYSLSSTLTLSKADYEKHKVYACEVTHQGLSSPVTKSFNRGEC | 1.87 | 14.9 % of HeCon Ab | 27.8 % of HeCon Ab
GpH7-A5/GpH7-B3 variant D265_12R/GpL16-k0 (antibody, human IgG1, kappa, Heterodimerized anti-glypican-3 IgG1; substitution in only one H chain (the GpH7-B3 chain); also called He Ab) heavy 1: not shown heavy 2: not shown light: DIVMTQSPLSLPVTPGEPASISCQASESLVHSNRNTYLHWYLQKPGQSPQLLIYKVSNRFSGVPDRFSGSGSGTDFTLKISRVEAEDVGVYYCSQNTHVPPTFGQGTKVEIERTVAAPSVFIFPPSDEQLKSGTASVVCLLNNFYPREAKVQWKVDNALQSGNSQESVTEQDSKDSTYSLSSTLTLSKADYEKHKVYACEVTHQGLSSPVTKSFNRGEC | 1.87 | 15 % of HeCon Ab | 28 % of HeCon Ab
GpH7-A5/GpH7-B3 variant D265_13S/GpL16-k0 (antibody, human IgG1, kappa, Heterodimerized anti-glypican-3 IgG1; substitution in only one H chain (the GpH7-B3 chain); also called He Ab) heavy 1: not shown heavy 2: not shown light: DIVMTQSPLSLPVTPGEPASISCQASESLVHSNRNTYLHWYLQKPGQSPQLLIYKVSNRFSGVPDRFSGSGSGTDFTLKISRVEAEDVGVYYCSQNTHVPPTFGQGTKVEIERTVAAPSVFIFPPSDEQLKSGTASVVCLLNNFYPREAKVQWKVDNALQSGNSQESVTEQDSKDSTYSLSSTLTLSKADYEKHKVYACEVTHQGLSSPVTKSFNRGEC | 1.75 | 11.3 % of HeCon Ab | 19.8 % of HeCon Ab
GpH7-A5/GpH7-B3 variant D265_07I/GpL16-k0 (antibody, human IgG1, kappa, Heterodimerized anti-glypican-3 IgG1; substitution in only one H chain (the GpH7-B3 chain); also called He Ab) heavy 1: not shown heavy 2: not shown light: DIVMTQSPLSLPVTPGEPASISCQASESLVHSNRNTYLHWYLQKPGQSPQLLIYKVSNRFSGVPDRFSGSGSGTDFTLKISRVEAEDVGVYYCSQNTHVPPTFGQGTKVEIERTVAAPSVFIFPPSDEQLKSGTASVVCLLNNFYPREAKVQWKVDNALQSGNSQESVTEQDSKDSTYSLSSTLTLSKADYEKHKVYACEVTHQGLSSPVTKSFNRGEC | 2.35 | 1.3 % of HeCon Ab | 3.1 % of HeCon Ab
